The target in the experiment is Protein Phosphatase Methylesterase-1 (PME-1), endogenous protein of NIH3T3 cells (mouse) (UniProt Q8BVQ5). Description: anti-HA co-immunoprecipitation, silver-stained 2D gel.
Protein Phosphatase Methylesterase-1 (PME-1), endogenous protein of NIH3T3 cells (mouse), sequence (Q8BVQ5 whole entry): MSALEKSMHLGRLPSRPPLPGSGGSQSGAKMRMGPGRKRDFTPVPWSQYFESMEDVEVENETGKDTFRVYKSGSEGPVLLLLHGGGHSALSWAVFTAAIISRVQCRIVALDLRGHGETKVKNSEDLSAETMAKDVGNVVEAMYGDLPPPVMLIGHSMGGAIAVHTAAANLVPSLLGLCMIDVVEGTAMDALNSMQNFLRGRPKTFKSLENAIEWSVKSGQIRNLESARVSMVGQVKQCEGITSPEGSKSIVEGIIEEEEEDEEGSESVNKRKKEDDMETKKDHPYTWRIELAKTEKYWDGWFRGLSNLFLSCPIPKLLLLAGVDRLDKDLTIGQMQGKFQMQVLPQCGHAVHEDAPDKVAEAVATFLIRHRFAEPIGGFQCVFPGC

Substance “HA-tagged PP2A C subunit mutant H118Q (from UniProt P67775 1-309) (enzyme)” came in with a stoichiometry of PME-1 to the A and C subunits in the immunoprecipitate of 1.

These data come from patent US6528295.
